Numbered stars: 1 amine (or outer) side, 2 acyl side, 3 side chain; on linkers, the order of the positions; unused ones are H or OH. Bridge positions count the residues as written; N and C are the ends. Side chains are listed from the residue outwards. Ends that are not written are not given here. * marks the point of attachment. C20 diacid = O=C(O)CCCCCCCCCCCCCCCCCCC(=O)*; γGlu = O=C(O)[C@H](CCC(=O)[*:2])N[*:1]; AEEA = NCCOCCOCC(=O)O

The target in assay [1] is T1, human calcitonin receptor (human, UniProt P30988 25-474).
T1 construct: whole, on cells; Assay used cell membranes of the transfected BHK cells; also called hCTR; hCT
T1 sequence (looked up): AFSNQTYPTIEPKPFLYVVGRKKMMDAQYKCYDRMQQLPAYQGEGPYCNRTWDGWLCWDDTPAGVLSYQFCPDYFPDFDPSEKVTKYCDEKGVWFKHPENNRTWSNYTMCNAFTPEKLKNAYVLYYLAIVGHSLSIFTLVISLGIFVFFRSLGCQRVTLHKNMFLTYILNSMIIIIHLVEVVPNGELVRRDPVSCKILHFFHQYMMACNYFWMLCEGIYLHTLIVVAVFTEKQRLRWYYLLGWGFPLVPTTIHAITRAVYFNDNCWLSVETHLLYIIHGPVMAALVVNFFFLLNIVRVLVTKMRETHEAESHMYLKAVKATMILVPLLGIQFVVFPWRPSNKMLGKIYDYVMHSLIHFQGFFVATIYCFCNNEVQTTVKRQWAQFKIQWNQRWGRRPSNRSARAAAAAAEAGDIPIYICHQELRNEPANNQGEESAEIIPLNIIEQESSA
Put plainly: SPA radioligand competition (125I-calcitonin), membranes of BHK cells with human calcitonin receptor. Put shortly: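 BHK hCTR membranes 35 ng/μL + SPA beads 0.05 mg/well; buffer 50 mM Hepes pH 7.4, 1 mM CaCl2, 5 mM MgCl₂, 0.1% OA, 0.02% Tween20. 120 min, 25° C., shaking. Scintillation count; IC50 by one-site binding competition.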

Assay [2] has as its target T1, human calcitonin receptor. Put plainly: ratio IC50 hCTR / IC50 hAmylin-R of the two SPA competition assays; reference: human amylin receptor. A digest of the protocol:
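IC₅₀ values were derived by one-site competition analysis of SPA counts. Cell membranes (35 ng/μL) with SPA beads were incubated with test compounds for 120 min at 25° C in Hepes buffer, pH 7.4, containing CaCl2, MgCl₂, OA and Tween20.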

B1: N^ε1-[2-[2-[2-(19-carboxynonadecanoylamino)ethoxy]ethoxy]acetyl]-[Arg17,Pro21,Pro27]-h-amylin (peptide)
peptide: K([AEEA-C20 diacid])CNTATCATQRLANFLRHSSPNFGAIPSSTNVGSNTY-NH2
modifications: disulfide 2-7; N-terminus assumed
SMILES: CC[C@H](C)[C@H](NC(=O)[C@H](C)NC(=O)CNC(=O)[C@H](Cc1ccccc1)NC(=O)[C@H](CC(N)=O)NC(=O)[C@@H]1CCCN1C(=O)[C@H](CO)NC(=O)[C@H](CO)NC(=O)[C@H](Cc1c[nH]cn1)NC(=O)[C@H](CCCNC(=N)N)NC(=O)[C@H](CC(C)C)NC(=O)[C@H](Cc1ccccc1)NC(=O)[C@H](CC(N)=O)NC(=O)[C@H](C)NC(=O)[C@H](CC(C)C)NC(=O)[C@H](CCCNC(=N)N)NC(=O)[C@H](CCC(N)=O)NC(=O)[C@@H](NC(=O)[C@H](C)NC(=O)[C@@H]1CSSC[C@H](NC(=O)[C@@H](N)CCCCNC(=O)COCCOCCNC(=O)CCCCCCCCCCCCCCCCCCC(=O)O)C(=O)N[C@@H](CC(N)=O)C(=O)N[C@@H]([C@@H](C)O)C(=O)N[C@@H](C)C(=O)N[C@@H]([C@@H](C)O)C(=O)N1)[C@@H](C)O)C(=O)N1CCC[C@H]1C(=O)N[C@@H](CO)C(=O)N[C@@H](CO)C(=O)N[C@H](C(=O)N[C@@H](CC(N)=O)C(=O)N[C@H](C(=O)NCC(=O)N[C@@H](CO)C(=O)N[C@@H](CC(N)=O)C(=O)N[C@H](C(=O)N[C@@H](Cc1ccc(O)cc1)C(N)=O)[C@@H](C)O)C(C)C)[C@@H](C)O
notes: Synthetic analogue; also called compound 43
A word on the IC50: it is the concentration that gives 50% inhibition. With B1, the IC50 in assay [1] amounted to 0.00264 µM. In addition, the “Ratio hCT/hAmylin binding” value in assay [2] turned out to be 34.7.

B2: N^ε-[2-[2-[2-[[(4S)-4-carboxy-4-(19-carboxynonadecanoylamino)butanoyl]amino]ethoxy]ethoxy]acetyl]Lys[Arg1,Arg17,Pro21,Pro27,His35]-h-amylin (peptide)
peptide: K([AEEA-γGlu-C20 diacid])RCNTATCATQRLANFLRHSSPNFGAIPSSTNVGSHTY-NH2
modifications: disulfide 3-8; N-terminus assumed
SMILES: CC[C@H](C)[C@H](NC(=O)[C@H](C)NC(=O)CNC(=O)[C@H](Cc1ccccc1)NC(=O)[C@H](CC(N)=O)NC(=O)[C@@H]1CCCN1C(=O)[C@H](CO)NC(=O)[C@H](CO)NC(=O)[C@H](Cc1c[nH]cn1)NC(=O)[C@H](CCCNC(=N)N)NC(=O)[C@H](CC(C)C)NC(=O)[C@H](Cc1ccccc1)NC(=O)[C@H](CC(N)=O)NC(=O)[C@H](C)NC(=O)[C@H](CC(C)C)NC(=O)[C@H](CCCNC(=N)N)NC(=O)[C@H](CCC(N)=O)NC(=O)[C@@H](NC(=O)[C@H](C)NC(=O)[C@@H]1CSSC[C@H](NC(=O)[C@H](CCCNC(=N)N)NC(=O)[C@@H](N)CCCCNC(=O)COCCOCCNC(=O)CC[C@H](NC(=O)CCCCCCCCCCCCCCCCCCC(=O)O)C(=O)O)C(=O)N[C@@H](CC(N)=O)C(=O)N[C@@H]([C@@H](C)O)C(=O)N[C@@H](C)C(=O)N[C@@H]([C@@H](C)O)C(=O)N1)[C@@H](C)O)C(=O)N1CCC[C@H]1C(=O)N[C@@H](CO)C(=O)N[C@@H](CO)C(=O)N[C@H](C(=O)N[C@@H](CC(N)=O)C(=O)N[C@H](C(=O)NCC(=O)N[C@@H](CO)C(=O)N[C@@H](Cc1c[nH]cn1)C(=O)N[C@H](C(=O)N[C@@H](Cc1ccc(O)cc1)C(N)=O)[C@@H](C)O)C(C)C)[C@@H](C)O
notes: Synthetic analogue, extended by Lys at the N-terminus; also called compound 45
Consider B2, for which, in assay [1], the IC50 amounted to 0.0148 µM. Besides, the “Ratio hCT/hAmylin binding” value in assay [2] amounted to 26.8.

B3: N^ε1-[2-[2-[2-[[(4S)-4-carboxy-4-(19-carboxynonadecanoylamino)butanoyl]amino]ethoxy]ethoxy]acetyl]-[Arg17,Pro21,Pro27]-h-amylin (peptide)
peptide: K([AEEA-γGlu-C20 diacid])CNTATCATQRLANFLRHSSPNFGAIPSSTNVGSNTY-NH2
modifications: disulfide 2-7; N-terminus assumed
SMILES: CC[C@H](C)[C@H](NC(=O)[C@H](C)NC(=O)CNC(=O)[C@H](Cc1ccccc1)NC(=O)[C@H](CC(N)=O)NC(=O)[C@@H]1CCCN1C(=O)[C@H](CO)NC(=O)[C@H](CO)NC(=O)[C@H](Cc1c[nH]cn1)NC(=O)[C@H](CCCNC(=N)N)NC(=O)[C@H](CC(C)C)NC(=O)[C@H](Cc1ccccc1)NC(=O)[C@H](CC(N)=O)NC(=O)[C@H](C)NC(=O)[C@H](CC(C)C)NC(=O)[C@H](CCCNC(=N)N)NC(=O)[C@H](CCC(N)=O)NC(=O)[C@@H](NC(=O)[C@H](C)NC(=O)[C@@H]1CSSC[C@H](NC(=O)[C@@H](N)CCCCNC(=O)COCCOCCNC(=O)CC[C@H](NC(=O)CCCCCCCCCCCCCCCCCCC(=O)O)C(=O)O)C(=O)N[C@@H](CC(N)=O)C(=O)N[C@@H]([C@@H](C)O)C(=O)N[C@@H](C)C(=O)N[C@@H]([C@@H](C)O)C(=O)N1)[C@@H](C)O)C(=O)N1CCC[C@H]1C(=O)N[C@@H](CO)C(=O)N[C@@H](CO)C(=O)N[C@H](C(=O)N[C@@H](CC(N)=O)C(=O)N[C@H](C(=O)NCC(=O)N[C@@H](CO)C(=O)N[C@@H](CC(N)=O)C(=O)N[C@H](C(=O)N[C@@H](Cc1ccc(O)cc1)C(N)=O)[C@@H](C)O)C(C)C)[C@@H](C)O
notes: Synthetic analogue; also called compound 41
Consider B3, for which, in assay [1], the IC50 amounted to 0.0213 µM. The “Ratio hCT/hAmylin binding” value in assay [2] is 49.9.

B4: N^ε-[(4S)-4-carboxy-4-(19-carboxynonadecanoylamino)butanoyl]Lys[Arg1,Arg17,Pro21,Pro27,His35]-h-amylin (peptide)
peptide: K([γGlu-C20 diacid])RCNTATCATQRLANFLRHSSPNFGAIPSSTNVGSHTY-NH2
modifications: disulfide 3-8; N-terminus assumed
SMILES: CC[C@H](C)[C@H](NC(=O)[C@H](C)NC(=O)CNC(=O)[C@H](Cc1ccccc1)NC(=O)[C@H](CC(N)=O)NC(=O)[C@@H]1CCCN1C(=O)[C@H](CO)NC(=O)[C@H](CO)NC(=O)[C@H](Cc1c[nH]cn1)NC(=O)[C@H](CCCNC(=N)N)NC(=O)[C@H](CC(C)C)NC(=O)[C@H](Cc1ccccc1)NC(=O)[C@H](CC(N)=O)NC(=O)[C@H](C)NC(=O)[C@H](CC(C)C)NC(=O)[C@H](CCCNC(=N)N)NC(=O)[C@H](CCC(N)=O)NC(=O)[C@@H](NC(=O)[C@H](C)NC(=O)[C@@H]1CSSC[C@H](NC(=O)[C@H](CCCNC(=N)N)NC(=O)[C@@H](N)CCCCNC(=O)CC[C@H](NC(=O)CCCCCCCCCCCCCCCCCCC(=O)O)C(=O)O)C(=O)N[C@@H](CC(N)=O)C(=O)N[C@@H]([C@@H](C)O)C(=O)N[C@@H](C)C(=O)N[C@@H]([C@@H](C)O)C(=O)N1)[C@@H](C)O)C(=O)N1CCC[C@H]1C(=O)N[C@@H](CO)C(=O)N[C@@H](CO)C(=O)N[C@H](C(=O)N[C@@H](CC(N)=O)C(=O)N[C@H](C(=O)NCC(=O)N[C@@H](CO)C(=O)N[C@@H](Cc1c[nH]cn1)C(=O)N[C@H](C(=O)N[C@@H](Cc1ccc(O)cc1)C(N)=O)[C@@H](C)O)C(C)C)[C@@H](C)O
notes: Synthetic analogue, extended by Lys at the N-terminus; also called compound 44
In the case of B4, in assay [1], the IC50 is 0.00487 µM. For the same molecule, the “Ratio hCT/hAmylin binding” value in assay [2] turned out to be 17.7.

B5: N^-1-[(4S)-4-carboxy-4-(19-carboxynonadecanoylamino)butanoyl]-Gly[Arg1,Arg17,Pro21,Pro27]-h-amylin (peptide)
peptide: {C20 diacid-γGlu}-GRCNTATCATQRLANFLRHSSPNFGAIPSSTNVGSNTY-NH2
modifications: disulfide 3-8
SMILES: CC[C@H](C)[C@H](NC(=O)[C@H](C)NC(=O)CNC(=O)[C@H](Cc1ccccc1)NC(=O)[C@H](CC(N)=O)NC(=O)[C@@H]1CCCN1C(=O)[C@H](CO)NC(=O)[C@H](CO)NC(=O)[C@H](Cc1c[nH]cn1)NC(=O)[C@H](CCCNC(=N)N)NC(=O)[C@H](CC(C)C)NC(=O)[C@H](Cc1ccccc1)NC(=O)[C@H](CC(N)=O)NC(=O)[C@H](C)NC(=O)[C@H](CC(C)C)NC(=O)[C@H](CCCNC(=N)N)NC(=O)[C@H](CCC(N)=O)NC(=O)[C@@H](NC(=O)[C@H](C)NC(=O)[C@@H]1CSSC[C@H](NC(=O)[C@H](CCCNC(=N)N)NC(=O)CNC(=O)CC[C@H](NC(=O)CCCCCCCCCCCCCCCCCCC(=O)O)C(=O)O)C(=O)N[C@@H](CC(N)=O)C(=O)N[C@@H]([C@@H](C)O)C(=O)N[C@@H](C)C(=O)N[C@@H]([C@@H](C)O)C(=O)N1)[C@@H](C)O)C(=O)N1CCC[C@H]1C(=O)N[C@@H](CO)C(=O)N[C@@H](CO)C(=O)N[C@H](C(=O)N[C@@H](CC(N)=O)C(=O)N[C@H](C(=O)NCC(=O)N[C@@H](CO)C(=O)N[C@@H](CC(N)=O)C(=O)N[C@H](C(=O)N[C@@H](Cc1ccc(O)cc1)C(N)=O)[C@@H](C)O)C(C)C)[C@@H](C)O
notes: Synthetic analogue, extended by Gly at the N-terminus; also called compound 46
For B5, the IC50 in assay [1] stood at 0.00953 µM. The “Ratio hCT/hAmylin binding” value in assay [2] was found to be 48.9.

B6: N^-1-[(4S)-4-carboxy-4-(19-carboxynonadecanoylamino)butanoyl]-Gly[Arg1,Arg17,Pro21,Pro27,His35]-h-amylin (peptide)
peptide: {C20 diacid-γGlu}-GRCNTATCATQRLANFLRHSSPNFGAIPSSTNVGSHTY-NH2
modifications: disulfide 3-8
SMILES: CC[C@H](C)[C@H](NC(=O)[C@H](C)NC(=O)CNC(=O)[C@H](Cc1ccccc1)NC(=O)[C@H](CC(N)=O)NC(=O)[C@@H]1CCCN1C(=O)[C@H](CO)NC(=O)[C@H](CO)NC(=O)[C@H](Cc1c[nH]cn1)NC(=O)[C@H](CCCNC(=N)N)NC(=O)[C@H](CC(C)C)NC(=O)[C@H](Cc1ccccc1)NC(=O)[C@H](CC(N)=O)NC(=O)[C@H](C)NC(=O)[C@H](CC(C)C)NC(=O)[C@H](CCCNC(=N)N)NC(=O)[C@H](CCC(N)=O)NC(=O)[C@@H](NC(=O)[C@H](C)NC(=O)[C@@H]1CSSC[C@H](NC(=O)[C@H](CCCNC(=N)N)NC(=O)CNC(=O)CC[C@H](NC(=O)CCCCCCCCCCCCCCCCCCC(=O)O)C(=O)O)C(=O)N[C@@H](CC(N)=O)C(=O)N[C@@H]([C@@H](C)O)C(=O)N[C@@H](C)C(=O)N[C@@H]([C@@H](C)O)C(=O)N1)[C@@H](C)O)C(=O)N1CCC[C@H]1C(=O)N[C@@H](CO)C(=O)N[C@@H](CO)C(=O)N[C@H](C(=O)N[C@@H](CC(N)=O)C(=O)N[C@H](C(=O)NCC(=O)N[C@@H](CO)C(=O)N[C@@H](Cc1c[nH]cn1)C(=O)N[C@H](C(=O)N[C@@H](Cc1ccc(O)cc1)C(N)=O)[C@@H](C)O)C(C)C)[C@@H](C)O
notes: Synthetic analogue, extended by Gly at the N-terminus; also called compound 47
As to B6, the IC50 in assay [1] was found to be 0.0155 µM. Also, in assay [2], the “Ratio hCT/hAmylin binding” value came out at 44.9.

Source of the values: patent publication US20140087995A1 (published 2014).
